Article PMC10952505

Key:
[1] = target: HA-rat μ opioid receptor (rat) (UniProt P33535)
[2] = target: endogenous μ opioid receptor of rat locus coeruleus neurones (rat (endogenous in locus coeruleus neurones)) (UniProt P33535)
[3] = target: human μ opioid receptor-Renilla luciferase II (human) (UniProt P35372)
[4] = target: HA-rat μ opioid receptor (rat) (UniProt P33535); remark: listed apart in the source
[5] = target: human μ opioid receptor-Renilla luciferase II (human) (UniProt P35372); remark: listed apart in the source

Chain of UniProt P35372 (P35372 whole entry): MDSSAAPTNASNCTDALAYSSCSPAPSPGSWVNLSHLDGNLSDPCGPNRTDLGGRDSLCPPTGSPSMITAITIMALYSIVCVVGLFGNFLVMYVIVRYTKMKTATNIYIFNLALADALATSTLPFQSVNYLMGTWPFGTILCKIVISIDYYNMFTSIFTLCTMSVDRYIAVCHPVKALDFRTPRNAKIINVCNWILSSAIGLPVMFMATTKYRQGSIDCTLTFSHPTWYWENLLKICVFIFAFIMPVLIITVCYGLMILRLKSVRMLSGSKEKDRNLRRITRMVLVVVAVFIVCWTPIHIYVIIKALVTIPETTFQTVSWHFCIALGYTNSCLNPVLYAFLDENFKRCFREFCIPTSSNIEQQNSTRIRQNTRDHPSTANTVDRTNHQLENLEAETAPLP

G protein activation BRET (Gαi1-RlucII / GFP10-Gγ2) in HEK293T cells, log EC50 (M) [1]: -6.48 log EC50 (M)
cell surface receptor loss (ELISA of HA-tagged receptor, 1 h agonist) in HEK293T cells, log EC50 (M) [1]: -6.14 log EC50 (M)
opioid-evoked GIRK current in rat locus coeruleus neurones (whole-cell patch clamp), log EC50 (M) [2]: -7.29 log EC50 (M)
β-arrestin 2 recruitment BRET (μ opioid receptor-RlucII / β-arrestin 2-GFP10) in HEK293T cells, log EC50 (M) [3]: -5.7 log EC50 (M)
KA (equilibrium dissociation constant) by Furchgott's method from G protein activation BRET curves with and without β-FNA, whole cells [4]: 5.6 µM
KA (equilibrium dissociation constant) by Furchgott's method from β-arrestin 2 recruitment BRET curves with and without β-FNA, whole cells [5]: 1580 nM
Substance: DAMGO ([D-Ala^2, N-MePhe^4, Gly-ol]-enkephalin) (peptide)
